Experimental data: patent US20160245821A1

Experiments:
[1] = biological target: WD Repeat Containing Protein 5 (WDR5) (UniProt P61964); test: ITC
[2] = biological target: WD Repeat Containing Protein 5 (WDR5) (UniProt P61964); test: thermal shift
[3] = biological target: WD Repeat Containing Protein 5 (WDR5) (UniProt P61964); test: fluorescent polarization (FP) assay

Peptide Substrate (WIN peptide, pentapeptide fragment of the WDR5 binding partner MLL1 protein)
Kd [1]: 1300 nM | ΔTm*(Thermal shift) [2]: 2 ° C. | Kd [3]: 1300 nM
